Experimental data: patent US20260062456A1 (ALPINE IMMUNE SCIENCES, published 2026)

T1: human TIGIT stably expressed on Jurkat/IL-2 reporter cells (Jurkat/TIGIT cells) (human, UniProt Q495A1 22-244)
T1 sequence (looked up): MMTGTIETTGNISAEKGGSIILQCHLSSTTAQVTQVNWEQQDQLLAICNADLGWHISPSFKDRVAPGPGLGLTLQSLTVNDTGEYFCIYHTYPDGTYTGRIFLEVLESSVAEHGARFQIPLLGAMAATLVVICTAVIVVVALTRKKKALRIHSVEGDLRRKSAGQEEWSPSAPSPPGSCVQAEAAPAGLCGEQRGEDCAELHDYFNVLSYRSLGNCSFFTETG


Columns and labels:
[1] = molecular target: T2, human PD-1 stably expressed on Jurkat/IL-2 reporter cells (Jurkat/PD-1 cells) (human, UniProt Q15116 25-288); assay: flow cytometry, Jurkat/PD-1 cells
[2] = molecular target: T2, human PD-1 stably expressed on …; assay: cell-based or functional assay
[3] = molecular target: T1, human TIGIT stably expressed on …; assay: cell-based or functional assay

T2 sequence (Q15116 25-288): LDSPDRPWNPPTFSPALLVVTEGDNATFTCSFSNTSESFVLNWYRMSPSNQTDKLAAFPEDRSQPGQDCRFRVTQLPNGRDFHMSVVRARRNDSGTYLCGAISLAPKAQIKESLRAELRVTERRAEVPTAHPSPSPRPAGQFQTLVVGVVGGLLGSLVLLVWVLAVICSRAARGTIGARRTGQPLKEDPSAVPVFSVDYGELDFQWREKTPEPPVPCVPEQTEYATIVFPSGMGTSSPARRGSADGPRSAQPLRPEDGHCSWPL

| Binder | Fold Increase over WT PD-L1 ECD-Fc [1] | MFI at 20 nM conc. [1] | Fold Increase Compared to non-stack variant CD155 IgV-Fc control [2] | Fold Increase Compared to non-stack variant PD-L1 IgV-Fc control [2] | Fold Increase Compared to variant PD-L1 IgV-Fc and variant CD155 IgV-Fc [2] | RLU [2] | Fold Increase Compared to non-stack variant CD155 IgV-Fc control [3] | Fold Increase Compared to non-stack variant PD-L1 IgV-Fc control [3] | Fold Increase Compared to variant PD-L1 IgV-Fc and variant CD155 IgV-Fc [3] | RLU [3] |
| --- | --- | --- | --- | --- | --- | --- | --- | --- | --- | --- |
| variant PD-L1 ECD-Fc N45D, S75P, P198S (Fc fusion, not shown: a dimerising Fc or GST) FTVTVPKDLYVVEYGSNMTIECKFPVEKQLDLAALIVYWEMEDKDIIQFVHGEEDLKVQHSSYRQRARLLKDQLPLGNAALQITDVKLQDAGVYRCMISYGGADYKRITVKVNAPYNKINQRILVVDPVTSEHELTCQAEGYPKAEVIWTSSDHQVLSGKTTTTNSKREEKLFNVTSTLRINTTTNEIFYCTFRRLDSEENHTAELVIPELPLAHPPNER | 25.9 fold | 130000 MFI | – | – | – | – | – | – | – | – |
| variant PD-L1 ECD-Fc N45D, V50A, I148V, R195G, N201D (Fc fusion, not shown: a dimerising Fc or GST) FTVTVPKDLYVVEYGSNMTIECKFPVEKQLDLAALIVYWEMEDKDIIQFAHGEEDLKVQHSSYRQRARLLKDQLSLGNAALQITDVKLQDAGVYRCMISYGGADYKRITVKVNAPYNKINQRILVVDPVTSEHELTCQAEGYPKAEVVWTSSDHQVLSGKTTTTNSKREEKLFNVTSTLRINTTTNEIFYCTFRGLDPEEDHTAELVIPELPLAHPPNER | 26.2 fold | 131000 MFI | – | – | – | – | – | – | – | – |
| variant PD-L1 ECD-Fc N45D, V50A, I119T, K144E (Fc fusion, not shown: a dimerising Fc or GST) FTVTVPKDLYVVEYGSNMTIECKFPVEKQLDLAALIVYWEMEDKDIIQFAHGEEDLKVQHSSYRQRARLLKDQLSLGNAALQITDVKLQDAGVYRCMISYGGADYKRITVKVNAPYNKTNQRILVVDPVTSEHELTCQAEGYPEAEVIWTSSDHQVLSGKTTTTNSKREEKLFNVTSTLRINTTTNEIFYCTFRRLDPEENHTAELVIPELPLAHPPNER | 6.8 fold | 34200 MFI | – | – | – | – | – | – | – | – |
| variant PD-L1 ECD-Fc N45D, V50A, R195T (Fc fusion, not shown: a dimerising Fc or GST) FTVTVPKDLYVVEYGSNMTIECKFPVEKQLDLAALIVYWEMEDKDIIQFAHGEEDLKVQHSSYRQRARLLKDQLSLGNAALQITDVKLQDAGVYRCMISYGGADYKRITVKVNAPYNKINQRILVVDPVTSEHELTCQAEGYPKAEVIWTSSDHQVLSGKTTTTNSKREEKLFNVTSTLRINTTTNEIFYCTFRTLDPEENHTAELVIPELPLAHPPNER | 28.3 fold | 142000 MFI | – | – | – | – | – | – | – | – |
| variant PD-L1 ECD-Fc N45D, T183A, T192S, R194G (Fc fusion, not shown: a dimerising Fc or GST) FTVTVPKDLYVVEYGSNMTIECKFPVEKQLDLAALIVYWEMEDKDIIQFVHGEEDLKVQHSSYRQRARLLKDQLSLGNAALQITDVKLQDAGVYRCMISYGGADYKRITVKVNAPYNKINQRILVVDPVTSEHELTCQAEGYPKAEVIWTSSDHQVLSGKTTTTNSKREEKLFNVTSTLRINATTNEIFYCSFGRLDPEENHTAELVIPELPLAHPPNER | 0.3 fold | 1350 MFI | – | – | – | – | – | – | – | – |
| variant PD-L1 ECD-Fc N45D, V50A, L124S, K144E, L179P, R195G (Fc fusion, not shown: a dimerising Fc or GST) FTVTVPKDLYVVEYGSNMTIECKFPVEKQLDLAALIVYWEMEDKDIIQFAHGEEDLKVQHSSYRQRARLLKDQLSLGNAALQITDVKLQDAGVYRCMISYGGADYKRITVKVNAPYNKINQRISVVDPVTSEHELTCQAEGYPEAEVIWTSSDHQVLSGKTTTTNSKREEKLFNVTSTPRINTTTNEIFYCTFRGLDPEENHTAELVIPELPLAHPPNER | 3.6 fold | 18200 MFI | – | – | – | – | – | – | – | – |
| variant PD-L1 ECD-Fc V11E, N45D, T130A, P198T (Fc fusion, not shown: a dimerising Fc or GST) FTVTVPKDLYEVEYGSNMTIECKFPVEKQLDLAALIVYWEMEDKDIIQFVHGEEDLKVQHSSYRQRARLLKDQLSLGNAALQITDVKLQDAGVYRCMISYGGADYKRITVKVNAPYNKINQRILVVDPVASEHELTCQAEGYPKAEVIWTSSDHQVLSGKTTTTNSKREEKLFNVTSTLRINTTTNEIFYCTFRRLDTEENHTAELVIPELPLAHPPNER | 27.4 fold | 137000 MFI | – | – | – | – | – | – | – | – |
| variant PD-L1 ECD-Fc N45D, S99G, C137R, V207A (Fc fusion, not shown: a dimerising Fc or GST) FTVTVPKDLYVVEYGSNMTIECKFPVEKQLDLAALIVYWEMEDKDIIQFVHGEEDLKVQHSSYRQRARLLKDQLSLGNAALQITDVKLQDAGVYRCMIGYGGADYKRITVKVNAPYNKINQRILVVDPVTSEHELTRQAEGYPKAEVIWTSSDHQVLSGKTTTTNSKREEKLFNVTSTLRINTTTNEIFYCTFRRLDPEENHTAELAIPELPLAHPPNER | 0.2 fold | 834 MFI | – | – | – | – | – | – | – | – |
| variant PD-L1 ECD-Fc N45D, T163I, K167R, R195G (Fc fusion, not shown: a dimerising Fc or GST) FTVTVPKDLYVVEYGSNMTIECKFPVEKQLDLAALIVYWEMEDKDIIQFVHGEEDLKVQHSSYRQRARLLKDQLSLGNAALQITDVKLQDAGVYRCMISYGGADYKRITVKVNAPYNKINQRILVVDPVTSEHELTCQAEGYPKAEVIWTSSDHQVLSGKTTITNSRREEKLFNVTSTLRINTTTNEIFYCTFRGLDPEENHTAELVIPELPLAHPPNER | 26.7 fold | 134000 MFI | – | – | – | – | – | – | – | – |
| variant PD-L1 ECD-Fc N45D, S131F, P198S (Fc fusion, not shown: a dimerising Fc or GST) FTVTVPKDLYVVEYGSNMTIECKFPVEKQLDLAALIVYWEMEDKDIIQFVHGEEDLKVQHSSYRQRARLLKDQLSLGNAALQITDVKLQDAGVYRCMISYGGADYKRITVKVNAPYNKINQRILVVDPVTFEHELTCQAEGYPKAEVIWTSSDHQVLSGKTTTTNSKREEKLFNVTSTLRINTTTNEIFYCTFRRLDSEENHTAELVIPELPLAHPPNER | 23.2 fold | 116000 MFI | – | – | – | – | – | – | – | – |
| PD-L1/CD155 Stack 3: (CD155 IgV) (G4S)3 (PD-L1 IgV) (G4S)2 Fc (Fc fusion) WPPPGTGDVVVQAPTQVSGFLGDSVTLPCYLQVPNMEVTHVSQLTWARHGESGSMAVFHQTQGPWYAESKRLEFVAARLGAELRNASLRMFGLRVEDEGNYTCQFVTFPQRSRSVDIWLRVLGGGGSGGGGSGGGGSFTVTVPKDLYVVEYGSNMTIECKFPVEKQLDLAALIVYWEMEGKDIIQFVHGEEDQKAQHSSYRQRARLLKDQLSLGNAALQITDVKLQDAGVYRCMISYGGGADYKRITVKVNAGGGGSGGGGSEPKSSDKTHTCPPCPAPEAEGAPSVFLFPPKPKDTLMISRTPEVTCVVVDVSHEDPEVKFNWYVDGVEVHNAKTKPREEQYNSTYRVVSVLTVLHQDWLNGKEYKCKVSNKALPAPIEKTISKAKGQPREPQVYTLPPSRDELTKNQVSLTCLVKGFYPSDIAVEWESNGQPENNYKTTPPVLDSDGSFFLYSKLTVDKSRWQQGNVFSCSVMHEALHNHYTQKSLSLSPGK | – | – | 1.3 fold | 0.5 fold | 0.6 fold | 434 RLU | 1.3 fold | 0.5 fold | 0.6 fold | 434 RLU |
| PD-L1/CD155 Stack 4: (PD-L1 IgV) (G4S)3 (CD155 IgV) (G4S)2 Fc (Fc fusion) FTVTVPKDLYVVEYGSNMTIECKFPVEKQLDLAALIVYWEMEGKDIIQFVHGEEDQKAQHSSYRQRARLLKDQLSLGNAALQITDVKLQDAGVYRCMISYGGGADYKRITVKVNAGGGGSGGGGSGGGGSWPPPGTGDVVVQAPTQVSGFLGDSVTLPCYLQVPNMEVTHVSQLTWARHGESGSMAVFHQTQGPWYAESKRLEFVAARLGAELRNASLRMFGLRVEDEGNYTCQFVTFPQRSRSVDIWLRVLGGGGSGGGGSEPKSSDKTHTCPPCPAPEAEGAPSVFLFPPKPKDTLMISRTPEVTCVVVDVSHEDPEVKFNWYVDGVEVHNAKTKPREEQYNSTYRVVSVLTVLHQDWLNGKEYKCKVSNKALPAPIEKTISKAKGQPREPQVYTLPPSRDELTKNQVSLTCLVKGFYPSDIAVEWESNGQPENNYKTTPPVLDSDGSFFLYSKLTVDKSRWQQGNVFSCSVMHEALHNHYTQKSLSLSPGK | – | – | 5.6 fold | 2 fold | 2.7 fold | 1920 RLU | 5.6 fold | 2 fold | 2.7 fold | 1920 RLU |
| PD-L1/CD155 Stack 1: (CD155 IgV) (G4S)2 Fc (G4S)3 (PD-L1 IgV) (Fc fusion) WPPPGTGDVVVQAPTQVSGFLGDSVTLPCYLQVPNMEVTHVSQLTWARHGESGSMAVFHQTQGPWYAESKRLEFVAARLGAELRNASLRMFGLRVEDEGNYTCQFVTFPQRSRSVDIWLRVLGGGGSGGGGSEPKSSDKTHTCPPCPAPEAEGAPSVFLFPPKPKDTLMISRTPEVTCVVVDVSHEDPEVKFNWYVDGVEVHNAKTKPREEQYNSTYRVVSVLTVLHQDWLNGKEYKCKVSNKALPAPIEKTISKAKGQPREPQVYTLPPSRDELTKNQVSLTCLVKGFYPSDIAVEWESNGQPENNYKTTPPVLDSDGSFFLYSKLTVDKSRWQQGNVFSCSVMHEALHNHYTQKSLSLSPGKGGGGSGGGGSGGGGSFTVTVPKDLYVVEYGSNMTIECKFPVEKQLDLAALIVYWEMEGKDIIQFVHGEEDQKAQHSSYRQRARLLKDQLSLGNAALQITDVKLQDAGVYRCMISYGGGADYKRITVKVNA | – | – | 1.7 fold | 0.6 fold | 0.8 fold | 573 RLU | 1.7 fold | 0.6 fold | 0.8 fold | 573 RLU |
| PD-L1/CD155 Stack 2: (PD-L1 IgV) (G4S)2 Fc(G4S)3 (CD155 IgV) (Fc fusion) FTVTVPKDLYVVEYGSNMTIECKFPVEKQLDLAALIVYWEMEGKDIIQFVHGEEDQKAQHSSYRQRARLLKDQLSLGNAALQITDVKLQDAGVYRCMISYGGGADYKRITVKVNAGGGGSGGGGSEPKSSDKTHTCPPCPAPEAEGAPSVFLFPPKPKDTLMISRTPEVTCVVVDVSHEDPEVKFNWYVDGVEVHNAKTKPREEQYNSTYRVVSVLTVLHQDWLNGKEYKCKVSNKALPAPIEKTISKAKGQPREPQVYTLPPSRDELTKNQVSLTCLVKGFYPSDIAVEWESNGQPENNYKTTPPVLDSDGSFFLYSKLTVDKSRWQQGNVFSCSVMHEALHNHYTQKSLSLSPGKGGGGSGGGGSGGGGSWPPPGTGDVVVQAPTQVSGFLGDSVTLPCYLQVPNMEVTHVSQLTWARHGESGSMAVFHQTQGPWYAESKRLEFVAARLGAELRNASLRMFGLRVEDEGNYTCQFVTFPQRSRSVDIWLRVL | – | – | 2.8 fold | 1 fold | 1.4 fold | 962 RLU | 2.8 fold | 1 fold | 1.4 fold | 962 RLU |
